Values quoted from earlier work as cited in paper PMC10474648, “Design of chimeric GLP-1A using oligomeric bile acids to utilize transporter-mediated endocytosis for oral delivery” (Biomaterials Research, 2023).

How the values were obtained:
[1] = cited from earlier work
From the text: Diabetes is a representative chronic disease that requires lifetime management. Because of the need for frequent and combination dosing, most hypoglycemic therapeutics are small molecule-based oral drugs.

GLP-1R = details: read-out: Kd, GLP-1R binding; cited from earlier work
From the text: Cellular penetration may occur by two pathways: the paracellular and transcellular pathways. […] Additionally, ...

Row | Substance | Half-life [1] [days] | Kd (GLP-1R) [nM]
1 | dulaglutide | 5 | –
2 | semaglutide | 7 | 0.38
